First the molecules themselves.
T1: GAL4 activation domain fusion (ACT) to HAB1 (UniProt Q9CAJ0 23-511, limits assumed)
T1 construct: pACT-HAB1 fusion in yeast reporter strains; also called pACT-HAB1
T1 sequence (looked up): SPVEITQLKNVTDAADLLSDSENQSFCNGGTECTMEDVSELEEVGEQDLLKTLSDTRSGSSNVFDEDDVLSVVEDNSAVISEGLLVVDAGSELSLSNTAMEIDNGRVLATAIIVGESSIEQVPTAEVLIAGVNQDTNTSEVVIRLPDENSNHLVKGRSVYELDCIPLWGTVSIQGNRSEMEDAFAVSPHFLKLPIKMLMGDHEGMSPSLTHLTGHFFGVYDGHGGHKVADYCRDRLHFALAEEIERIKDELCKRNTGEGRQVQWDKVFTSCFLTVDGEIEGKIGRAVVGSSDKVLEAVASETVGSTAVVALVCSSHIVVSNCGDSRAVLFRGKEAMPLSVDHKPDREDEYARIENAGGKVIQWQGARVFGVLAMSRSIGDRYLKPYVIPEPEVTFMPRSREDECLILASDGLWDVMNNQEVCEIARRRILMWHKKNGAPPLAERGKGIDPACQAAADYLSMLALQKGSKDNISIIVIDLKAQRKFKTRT

B1: PYR1^K59R,V164H (receptor, not shown: small tags and cut ends)
chain: MPSELTPEERSELKNSIAEFHTYQLDPGSCSSLHAQRIHAPPELVWSIVRRFDKPQTYRHFIKSCSVEQNFEMRVGCTRDVIVISGLPANTSTERLDILDDERRVTGFSIIGGEHRLTNYKSVTTVHRFEKENRIWTVVLESYVVDMPEGNSEDDTRMFADTVHKLNLQKLATVAEAMARNSGDGSGSQVT
notes: pBD-PYR1 fusion in yeast
B2: PYR1^K59R,V164Q (receptor, not shown: small tags and cut ends)
chain: MPSELTPEERSELKNSIAEFHTYQLDPGSCSSLHAQRIHAPPELVWSIVRRFDKPQTYRHFIKSCSVEQNFEMRVGCTRDVIVISGLPANTSTERLDILDDERRVTGFSIIGGEHRLTNYKSVTTVHRFEKENRIWTVVLESYVVDMPEGNSEDDTRMFADTVQKLNLQKLATVAEAMARNSGDGSGSQVT
notes: pBD-PYR1 fusion in yeast
B3: PYR1^K59R,V164N (receptor, not shown: small tags and cut ends)
chain: MPSELTPEERSELKNSIAEFHTYQLDPGSCSSLHAQRIHAPPELVWSIVRRFDKPQTYRHFIKSCSVEQNFEMRVGCTRDVIVISGLPANTSTERLDILDDERRVTGFSIIGGEHRLTNYKSVTTVHRFEKENRIWTVVLESYVVDMPEGNSEDDTRMFADTVNKLNLQKLATVAEAMARNSGDGSGSQVT
notes: pBD-PYR1 fusion in yeast
B4: PYR1^K59R,V164F (receptor, not shown: small tags and cut ends)
chain: MPSELTPEERSELKNSIAEFHTYQLDPGSCSSLHAQRIHAPPELVWSIVRRFDKPQTYRHFIKSCSVEQNFEMRVGCTRDVIVISGLPANTSTERLDILDDERRVTGFSIIGGEHRLTNYKSVTTVHRFEKENRIWTVVLESYVVDMPEGNSEDDTRMFADTVFKLNLQKLATVAEAMARNSGDGSGSQVT
notes: pBD-PYR1 fusion in yeast
B5: PYR1^K59R,V164C (receptor, not shown: small tags and cut ends)
chain: MPSELTPEERSELKNSIAEFHTYQLDPGSCSSLHAQRIHAPPELVWSIVRRFDKPQTYRHFIKSCSVEQNFEMRVGCTRDVIVISGLPANTSTERLDILDDERRVTGFSIIGGEHRLTNYKSVTTVHRFEKENRIWTVVLESYVVDMPEGNSEDDTRMFADTVCKLNLQKLATVAEAMARNSGDGSGSQVT
notes: pBD-PYR1 fusion in yeast
B6: PYR1^K59R,V164A (receptor, not shown: small tags and cut ends)
chain: MPSELTPEERSELKNSIAEFHTYQLDPGSCSSLHAQRIHAPPELVWSIVRRFDKPQTYRHFIKSCSVEQNFEMRVGCTRDVIVISGLPANTSTERLDILDDERRVTGFSIIGGEHRLTNYKSVTTVHRFEKENRIWTVVLESYVVDMPEGNSEDDTRMFADTVAKLNLQKLATVAEAMARNSGDGSGSQVT
notes: pBD-PYR1 fusion in yeast
B7: PYR1^K59R,V164S (receptor, not shown: small tags and cut ends)
chain: MPSELTPEERSELKNSIAEFHTYQLDPGSCSSLHAQRIHAPPELVWSIVRRFDKPQTYRHFIKSCSVEQNFEMRVGCTRDVIVISGLPANTSTERLDILDDERRVTGFSIIGGEHRLTNYKSVTTVHRFEKENRIWTVVLESYVVDMPEGNSEDDTRMFADTVSKLNLQKLATVAEAMARNSGDGSGSQVT
notes: pBD-PYR1 fusion in yeast
B8: PYR1^K59R,V164L (receptor, not shown: small tags and cut ends)
chain: MPSELTPEERSELKNSIAEFHTYQLDPGSCSSLHAQRIHAPPELVWSIVRRFDKPQTYRHFIKSCSVEQNFEMRVGCTRDVIVISGLPANTSTERLDILDDERRVTGFSIIGGEHRLTNYKSVTTVHRFEKENRIWTVVLESYVVDMPEGNSEDDTRMFADTVLKLNLQKLATVAEAMARNSGDGSGSQVT
notes: pBD-PYR1 fusion in yeast
B9: PYR1^K59R,V164G (receptor, not shown: small tags and cut ends)
chain: MPSELTPEERSELKNSIAEFHTYQLDPGSCSSLHAQRIHAPPELVWSIVRRFDKPQTYRHFIKSCSVEQNFEMRVGCTRDVIVISGLPANTSTERLDILDDERRVTGFSIIGGEHRLTNYKSVTTVHRFEKENRIWTVVLESYVVDMPEGNSEDDTRMFADTVGKLNLQKLATVAEAMARNSGDGSGSQVT
notes: pBD-PYR1 fusion in yeast
B10: PYR1^K59R,V164T (receptor, not shown: small tags and cut ends)
chain: MPSELTPEERSELKNSIAEFHTYQLDPGSCSSLHAQRIHAPPELVWSIVRRFDKPQTYRHFIKSCSVEQNFEMRVGCTRDVIVISGLPANTSTERLDILDDERRVTGFSIIGGEHRLTNYKSVTTVHRFEKENRIWTVVLESYVVDMPEGNSEDDTRMFADTVTKLNLQKLATVAEAMARNSGDGSGSQVT
notes: pBD-PYR1 fusion in yeast
B11: PYR1^K59R,V164E (receptor, not shown: small tags and cut ends)
chain: MPSELTPEERSELKNSIAEFHTYQLDPGSCSSLHAQRIHAPPELVWSIVRRFDKPQTYRHFIKSCSVEQNFEMRVGCTRDVIVISGLPANTSTERLDILDDERRVTGFSIIGGEHRLTNYKSVTTVHRFEKENRIWTVVLESYVVDMPEGNSEDDTRMFADTVEKLNLQKLATVAEAMARNSGDGSGSQVT
notes: pBD-PYR1 fusion in yeast
B12: PYR1^K59R,V164M (receptor, not shown: small tags and cut ends)
chain: MPSELTPEERSELKNSIAEFHTYQLDPGSCSSLHAQRIHAPPELVWSIVRRFDKPQTYRHFIKSCSVEQNFEMRVGCTRDVIVISGLPANTSTERLDILDDERRVTGFSIIGGEHRLTNYKSVTTVHRFEKENRIWTVVLESYVVDMPEGNSEDDTRMFADTVMKLNLQKLATVAEAMARNSGDGSGSQVT
notes: pBD-PYR1 fusion in yeast
B13: PYR1^K59R,T162L (receptor, not shown: small tags and cut ends)
chain: MPSELTPEERSELKNSIAEFHTYQLDPGSCSSLHAQRIHAPPELVWSIVRRFDKPQTYRHFIKSCSVEQNFEMRVGCTRDVIVISGLPANTSTERLDILDDERRVTGFSIIGGEHRLTNYKSVTTVHRFEKENRIWTVVLESYVVDMPEGNSEDDTRMFADLVVKLNLQKLATVAEAMARNSGDGSGSQVT
notes: pBD-PYR1 fusion in yeast
B14: PYR1^K59R,F108A (receptor, not shown: small tags and cut ends)
chain: MPSELTPEERSELKNSIAEFHTYQLDPGSCSSLHAQRIHAPPELVWSIVRRFDKPQTYRHFIKSCSVEQNFEMRVGCTRDVIVISGLPANTSTERLDILDDERRVTGASIIGGEHRLTNYKSVTTVHRFEKENRIWTVVLESYVVDMPEGNSEDDTRMFADTVVKLNLQKLATVAEAMARNSGDGSGSQVT
notes: pBD-PYR1 fusion in yeast
B15: PYR1^K59R,F108A,S122G,L87A (receptor)
chain: MPSELTPEERSELKNSIAEFHTYQLDPGSCSSLHAQRIHAPPELVWSIVRRFDKPQTYRHFIKSCSVEQNFEMRVGCTRDVIVISGAPANTSTERLDILDDERRVTGASIIGGEHRLTNYKGVTTVHRFEKENRIWTVVLESYVVDMPEGNSEDDTRMFADTVVKLNLQKLATVAEAMARNSGDGSGSQVT
notes: pBD-PYR1 fusion in yeast
B16: PYR1^K59R,F108A,S122G,V81I (receptor, not shown: small tags and cut ends)
chain: MPSELTPEERSELKNSIAEFHTYQLDPGSCSSLHAQRIHAPPELVWSIVRRFDKPQTYRHFIKSCSVEQNFEMRVGCTRDIIVISGLPANTSTERLDILDDERRVTGASIIGGEHRLTNYKGVTTVHRFEKENRIWTVVLESYVVDMPEGNSEDDTRMFADTVVKLNLQKLATVAEAMARNSGDGSGSQVT
notes: pBD-PYR1 fusion in yeast
B17: PYR1^K59R,F108A,S122G,F159V (receptor)
chain: MPSELTPEERSELKNSIAEFHTYQLDPGSCSSLHAQRIHAPPELVWSIVRRFDKPQTYRHFIKSCSVEQNFEMRVGCTRDVIVISGLPANTSTERLDILDDERRVTGASIIGGEHRLTNYKGVTTVHRFEKENRIWTVVLESYVVDMPEGNSEDDTRMVADTVVKLNLQKLATVAEAMARNSGDGSGSQVT
notes: pBD-PYR1 fusion in yeast
B18: PYR1^K59R,F108A,S122G,A160V (receptor)
chain: MPSELTPEERSELKNSIAEFHTYQLDPGSCSSLHAQRIHAPPELVWSIVRRFDKPQTYRHFIKSCSVEQNFEMRVGCTRDVIVISGLPANTSTERLDILDDERRVTGASIIGGEHRLTNYKGVTTVHRFEKENRIWTVVLESYVVDMPEGNSEDDTRMFVDTVVKLNLQKLATVAEAMARNSGDGSGSQVT
notes: pBD-PYR1 fusion in yeast
B19: PYR1^K59R,F108A,S122G (receptor, not shown: small tags and cut ends)
chain: MPSELTPEERSELKNSIAEFHTYQLDPGSCSSLHAQRIHAPPELVWSIVRRFDKPQTYRHFIKSCSVEQNFEMRVGCTRDVIVISGLPANTSTERLDILDDERRVTGASIIGGEHRLTNYKGVTTVHRFEKENRIWTVVLESYVVDMPEGNSEDDTRMFADTVVKLNLQKLATVAEAMARNSGDGSGSQVT
notes: pBD-PYR1 fusion in yeast; also called pBD-PYR1^K59R,F108A,S122G
B20: PYR1^K59R,F108A,S122G,F159M (receptor)
chain: MPSELTPEERSELKNSIAEFHTYQLDPGSCSSLHAQRIHAPPELVWSIVRRFDKPQTYRHFIKSCSVEQNFEMRVGCTRDVIVISGLPANTSTERLDILDDERRVTGASIIGGEHRLTNYKGVTTVHRFEKENRIWTVVLESYVVDMPEGNSEDDTRMMADTVVKLNLQKLATVAEAMARNSGDGSGSQVT
notes: pBD-PYR1 fusion in yeast
B21: PYR1^K59R,F108A,S122G,V81C (receptor, not shown: small tags and cut ends)
chain: MPSELTPEERSELKNSIAEFHTYQLDPGSCSSLHAQRIHAPPELVWSIVRRFDKPQTYRHFIKSCSVEQNFEMRVGCTRDCIVISGLPANTSTERLDILDDERRVTGASIIGGEHRLTNYKGVTTVHRFEKENRIWTVVLESYVVDMPEGNSEDDTRMFADTVVKLNLQKLATVAEAMARNSGDGSGSQVT
notes: pBD-PYR1 fusion in yeast
B22: PYR1^K59R,F108A,S122G,F159L (receptor)
chain: MPSELTPEERSELKNSIAEFHTYQLDPGSCSSLHAQRIHAPPELVWSIVRRFDKPQTYRHFIKSCSVEQNFEMRVGCTRDVIVISGLPANTSTERLDILDDERRVTGASIIGGEHRLTNYKGVTTVHRFEKENRIWTVVLESYVVDMPEGNSEDDTRMLADTVVKLNLQKLATVAEAMARNSGDGSGSQVT
notes: pBD-PYR1 fusion in yeast

One test addresses T1, GAL4 activation domain fusion (ACT) to …. The test can be described thus: yeast two-hybrid, X-gal; lowest dichlobenil concentration giving signal.
In turn, B1 gave a Threshold of 100 µM. The same measure, in the same setting: the same measure for B2: 100 µM; for B3: 100 µM; for B4: 100 µM. In turn, B5 returned a Threshold of 100 µM. The same measure, in the same setting: the same measure for B6: 100 µM.

Consider B7, for which the Threshold was 100 µM. As for B8, the Threshold was found to be 100 µM. Molecule B9 came in with a Threshold of 100 µM. On the same count and under the same terms, the same measure for B10: 100 µM; for B11: 100 µM. Still for that read-out and setting: the same measure for B12: 100 µM; for B13: 100 µM.

The target is the same in a further test. The test can be described thus: yeast two-hybrid, X-gal; lowest mandipropamid concentration giving signal.
B14 registered a Threshold of 100 µM.

For the molecule B15, the Threshold came out at 0.25 µM. The same measure, in the same setting: the same measure for B16: 0.25 µM; for B17: 0.25 µM. The molecule B18 displayed a Threshold of 0.25 µM. Still for that read-out and setting: the same measure for B19: 1 µM. The same measure, in the same setting: the same measure for B20: 0.25 µM.

The molecule B21 yielded a Threshold of 0.25 µM. Same read-out and setting: the same measure for B22: 0.05 µM.

(Values after patent publication US20160115500A1 (University of California, published 2016).)
